These results are taken from article doi:10.1101/2025.08.01.668158.

The target in one data set is T1, SpDis3L2 WT (Schizosaccharomyces pombe, UniProt O14040 1-927).
T1 sequence: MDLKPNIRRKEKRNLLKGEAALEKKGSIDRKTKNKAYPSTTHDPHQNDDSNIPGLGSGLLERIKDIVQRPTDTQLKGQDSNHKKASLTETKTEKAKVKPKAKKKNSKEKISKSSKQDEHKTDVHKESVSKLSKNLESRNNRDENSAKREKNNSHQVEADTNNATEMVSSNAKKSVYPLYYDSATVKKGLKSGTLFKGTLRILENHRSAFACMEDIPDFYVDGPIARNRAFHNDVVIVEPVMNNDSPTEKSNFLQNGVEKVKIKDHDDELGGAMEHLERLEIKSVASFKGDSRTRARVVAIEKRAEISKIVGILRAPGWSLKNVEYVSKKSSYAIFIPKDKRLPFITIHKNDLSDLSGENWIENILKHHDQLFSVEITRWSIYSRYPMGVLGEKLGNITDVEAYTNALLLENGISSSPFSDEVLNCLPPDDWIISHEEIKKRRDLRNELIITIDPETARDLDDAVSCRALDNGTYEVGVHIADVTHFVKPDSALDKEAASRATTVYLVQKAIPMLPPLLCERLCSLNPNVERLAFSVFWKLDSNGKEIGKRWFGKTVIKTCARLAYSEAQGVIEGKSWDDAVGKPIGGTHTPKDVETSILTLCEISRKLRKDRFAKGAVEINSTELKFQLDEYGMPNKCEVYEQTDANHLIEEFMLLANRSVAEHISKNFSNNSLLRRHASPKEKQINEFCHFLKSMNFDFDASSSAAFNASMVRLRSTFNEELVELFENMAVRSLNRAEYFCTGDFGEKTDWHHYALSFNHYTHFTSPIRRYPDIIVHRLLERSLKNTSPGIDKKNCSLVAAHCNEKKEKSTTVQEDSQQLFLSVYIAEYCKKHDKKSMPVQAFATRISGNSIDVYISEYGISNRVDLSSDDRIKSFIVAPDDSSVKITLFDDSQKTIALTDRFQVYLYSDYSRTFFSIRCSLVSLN
Description: EMSA. For orientation: In EMSA bound probe runs differently from free probe, usually more slowly.

In another data set the target is T2, SpDis3L2 A756R (Schizosaccharomyces pombe, UniProt O14040 1-927, A756R).
T2 sequence: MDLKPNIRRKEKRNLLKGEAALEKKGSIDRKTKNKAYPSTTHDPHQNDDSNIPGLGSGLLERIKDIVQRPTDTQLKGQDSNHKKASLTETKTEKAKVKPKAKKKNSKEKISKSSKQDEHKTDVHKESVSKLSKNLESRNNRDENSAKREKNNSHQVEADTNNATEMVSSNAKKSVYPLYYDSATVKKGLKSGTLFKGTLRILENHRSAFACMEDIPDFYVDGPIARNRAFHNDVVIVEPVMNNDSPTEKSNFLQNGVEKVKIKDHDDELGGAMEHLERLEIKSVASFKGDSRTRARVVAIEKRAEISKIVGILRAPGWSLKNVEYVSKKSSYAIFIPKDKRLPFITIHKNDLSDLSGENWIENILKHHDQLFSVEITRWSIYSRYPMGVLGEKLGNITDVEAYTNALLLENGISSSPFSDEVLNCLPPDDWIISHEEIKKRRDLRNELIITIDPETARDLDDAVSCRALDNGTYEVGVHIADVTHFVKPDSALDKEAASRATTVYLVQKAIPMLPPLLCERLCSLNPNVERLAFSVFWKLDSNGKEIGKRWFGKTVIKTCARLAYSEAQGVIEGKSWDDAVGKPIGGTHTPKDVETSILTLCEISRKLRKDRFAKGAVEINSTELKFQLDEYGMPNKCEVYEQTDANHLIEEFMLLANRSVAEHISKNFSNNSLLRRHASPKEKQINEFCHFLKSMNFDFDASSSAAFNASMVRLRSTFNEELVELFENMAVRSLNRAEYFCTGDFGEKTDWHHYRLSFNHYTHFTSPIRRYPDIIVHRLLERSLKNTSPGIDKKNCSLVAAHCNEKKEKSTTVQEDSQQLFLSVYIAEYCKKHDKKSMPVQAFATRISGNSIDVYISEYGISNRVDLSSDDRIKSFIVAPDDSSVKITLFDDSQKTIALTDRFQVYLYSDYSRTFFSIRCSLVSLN
Nature of the data set: EMSA.

In a further data set the target is T3, SpDis3L2(D461N)ΔN168 (Schizosaccharomyces pombe, UniProt O14040 168-927, D461N).
T3 sequence: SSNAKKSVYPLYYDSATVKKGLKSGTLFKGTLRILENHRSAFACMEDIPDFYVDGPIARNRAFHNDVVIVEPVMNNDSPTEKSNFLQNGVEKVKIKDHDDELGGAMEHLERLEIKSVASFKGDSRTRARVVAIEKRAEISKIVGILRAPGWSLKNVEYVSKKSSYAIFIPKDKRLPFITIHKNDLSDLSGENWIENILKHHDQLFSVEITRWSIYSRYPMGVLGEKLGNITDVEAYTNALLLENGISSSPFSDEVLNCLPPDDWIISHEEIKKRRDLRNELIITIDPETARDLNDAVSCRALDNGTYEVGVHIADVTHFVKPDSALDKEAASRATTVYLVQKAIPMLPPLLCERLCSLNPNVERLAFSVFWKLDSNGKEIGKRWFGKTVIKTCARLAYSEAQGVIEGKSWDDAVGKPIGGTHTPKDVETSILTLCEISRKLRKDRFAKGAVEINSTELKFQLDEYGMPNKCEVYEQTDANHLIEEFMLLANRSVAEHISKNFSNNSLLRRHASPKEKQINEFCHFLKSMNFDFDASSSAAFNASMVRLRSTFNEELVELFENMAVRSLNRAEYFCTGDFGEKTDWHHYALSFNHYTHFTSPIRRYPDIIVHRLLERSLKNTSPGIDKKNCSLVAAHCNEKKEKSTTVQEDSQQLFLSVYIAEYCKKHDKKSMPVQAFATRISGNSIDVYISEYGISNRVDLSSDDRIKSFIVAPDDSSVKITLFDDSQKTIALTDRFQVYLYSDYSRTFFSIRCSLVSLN
Nature of the data set: X-ray crystallography.

GUUUUGUAUAGAAAUCAAUGUUUUUUUUUUUUUUUU (ssRNA) [Adh1-U16]: the binding result with SpDis3L2 WT and with SpDis3L2 A756R was “binds” throughout. UUUUUUUUUUUUU (ssRNA) [U13]: in the data set with SpDis3L2(D461N)ΔN168, the binding result is recorded as “binds”.
